One substance from patent publication EP0765166B1, “RADIOLABELED ANNEXIN-GALACTOSE CONJUGATES” (NEORX CORPORATION, priority 1994, dated 1995) can be followed below.

The conditions of the data set: in vivo, iv. The method, then: • A. Animal Preparation - LA Vascular Thrombi. Fasting 25-30 kg Yorkshire swine were sedated with intramuscular Telazol (5-10 mg/kg) (commercially available from AVECO Co.) and commercially available Atropine (1 mg, Elkins-Sinn, Inc., Cherry Hill, NJ). Surital (200 mg) (commercially available from Abbott Laboratories) anaesthesia was administered intravenously. The animals were intubated and given inhalation anaesthesia of 1.5-2% halothane (commercially available from Abbott Laboratories) and O2 sufficient to obtain a deep level of anesthesia and physiologic arterial blood gases. Continuous electrocardiographic monitoring was instituted using alligator clip electrodes. A cut down in the neck region was conducted, and an 8 french catheter (USCI Co, Billerica, MA) was placed in the right common carotid artery for blood pressure and arterial blood gas monitoring as well as for blood sampling. The swine were placed in a right lateral decubitus position, and a lateral thoracotomy was performed to expose the heart. The incision was held open by a thoracotomy retractor. The pericardium was opened, and the left atrial appendage was isolated from the left atrium by a vascular cross- clamp. Rubber tipped forceps were used to gently crush the appendage. Five minutes later, ricinoleate (1 mg, ICN Pharmaceuticals, Costa Mesa, CA) and thrombin ([…], Johnson and Johnson Co., Arlington, Texas) were injected into the LAA (left atrial appendage) using a 27 Ga needle. The cross-clamp was removed 10 minutes later. One hour after the crush injury, Tc-99m-annexin V, prepared in accordance with Example I above, was administered as an intravenous bolus dose in an ear vein. The intravenous line was then flushed with saline. In 7 animals, I-125 labeled ovalbumin was administered as a non-specific control preparable, for example, by the procedure described by Fraker et al., Biochem. Biophys. Res. Commun. 80: 849-57, 1978). Briefly, I-125-radiolabeled ovalbumin was prepared by the Iodogen method, employing 600 µg ovalbumin (Sigma Chemical Co., St. Louis, Missouri) and NaI-125 (2mCi, 0.92 nmol). Image acquisition was performed as described below. At the end of the experimental procedure (generally about 150 minutes), the animals were sacrificed by an intravenous bolus dose of 80 mEq of KCl while the animals were still under general anaesthetic. A final blood sample was taken for well counting. The heart was rapidly excised, washed free of blood and dissected into samples for well counting. Additional samples of carotid artery, lung, liver, spleen, muscle and kidney were obtained in some animals. • B. Controls. Five different types of controls were used: open chest sham; closed chest sham; ovalbumin; indium platelets; and non-specific Tc-99m-labeled antibody. • 1. Open Chest Sham. […]

Consider “Tc-99m-annexin V: Annexin V radiolabeled with Tc-99m by using a diamide dimercaptide N2S2 chelate (Comparative Example I)”, for which the a entry was “a = 0.0389 %ID/g”, the b entry is “b = 0.0300 %ID/g”, the t1/2 a result is listed as “t1/2 a = 9.6 min” and the t1/2 b result is recorded as “t1/2 b = 46 min”.
